Experimental data published in patent publication US20180193437A1 (UNIVERSITY OF FLORIDA RESEARCH FOUNDATION, published 2018).

Biological target: T1, rabbit IFNγ (rabbit, UniProt P30123 24-167)
T1 construct: also called rabbit IFNgamma; interferon gamma
T1 sequence (looked up): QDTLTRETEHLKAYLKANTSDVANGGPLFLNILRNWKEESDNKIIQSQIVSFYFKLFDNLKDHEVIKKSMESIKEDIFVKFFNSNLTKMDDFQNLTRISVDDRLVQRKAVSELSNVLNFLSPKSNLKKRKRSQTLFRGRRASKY
Assay: binding data, method not described

B1: M-T7 point mutation E209I (other)
chain: VRLTSYDLNTFVTWQDDGYTYNVSIKPYTTATWINVCEWASSSCNVSLALQYDLDVVSWARLTRVGKYTEYSLEPTCAVARFSPPEVQLVRTGTSVEVLVRHPVVYLRGQEVSVYGHSFCDYDFGYKTIFLFSKNKRAEYVVPGRYCDNVECRFSIDSQESVCATAVLTYDGSYRSEAGVEVCVPELAKRIVSPYIVKKSSDLEYVKRAIHNEYRLDTSSEGRRLEELYLTVASMFERLVEDVFE
notes: The mutant was made by mutagenic PCR of the His-tagged M-T7 construct; also called M-T7 (E209I); not shown: C-terminal His tag (His6x)
Q: Does B1 bind?
A: Result: no binding
